In paper PMC3643604:

Biological target: MED25 ACID/PTOV domain (purified) (human)
Assay: ITC

- Kd: 543 nM
- stoichiometry N: 1
Substance: ERM 38–68 peptide (from UniProt P41161 38-68)
